Target: mTOR^ΔN-mLST8 complex (human) (UniProt P42345)

KM of S6K1^367–404 phosphorylation by mTOR^ΔN-mLST8: 430 µM
Substance: S6K1^367–404 wild type (from UniProt P23443-2 367-404) (peptide)

Reference: PMC5750076
